{
  "source": "paper PMC7610252",
  "about": "(Biochemistry, 2017)",
  "molecules": {"B1": {"name": "FixA subunit of the FixABCX complex from Azotobacter vinelandii (natural protein, UniProt P53576 1-281, looked up)", "chain": "MHSVVCIKQLPDSAQIRVHPVTNTIMRQGVPAIINPYDLFALEEALRLKDKFGGTVTVVTMGPPMAEAALRKCLSFGADDAILVSDRAFAGSDTLATSYALSAVIRKIMEDMPVDLIFTGKQTIDGDTAQVGPGIAKRLDYQLLTYVSRIVDVDTAKKEIQVERRAEGGVQLLETSLPCLITMLEGTNEMRFGDLDDLFRAARHELKVWDRVAAGIDTVEMIGLKGSPTVVSKVFAPKPRSKRAELIESHDSDPKNLAEAALAKLFTQHPNLEQEIAKRAV"}, "B2": {"name": "FixB subunit of the FixABCX complex from Azotobacter vinelandii (natural protein, UniProt P53574 2-360, looked up)", "chain": "SEQPKKPTKKKVELDPRFVDVRHVWVCIESERGVVHPVSWELLGEGRKSVDALGGELYGVVICGPGERGKEICGEPVQHGADKAYLLQHEILRDYRNEPYTKALTDLVTATQPEILMLGATTLGRDLAGSVATTLGTGLVADCTELVIDTETRNLASTRPTFDGSLLCKPSSAQRHRPQMATVRPRMAMPEPDASRSGEIIEVPFSMIETDIITKVLEFIPDDTRDKPNLPFADIIVAGGRGLRNQENFQLVWDLAKVLGAEVGASRPIVQAGWAELDRQVGQSGKTVRPKLYIAAGISGAIQHRVGMDGADVIIAINTDPNAPIFDFAHYGIVGNAITVLPALTEAFKARLGQLKKAG"}, "B3": {"name": "FixC subunit of the FixABCX complex from Azotobacter vinelandii (natural protein, UniProt P53572 2-427, looked up)", "chain": "AERFDVIVVGAGMAGNAAAYTLAKGGLKVLQIERGETPGSKNVQGAILYADAIEKIIPDFRDDAPLERHLIEQRVWVMDDASYGYHYRSEDFNKPPYNRYTIIRVHFDQWFNKKAREAGVLTICETRHDLLIEGGKVVGVRTDRQGGEVRADAVILADGVNSRLAVKAGFSRDQPENWALAVKEIHFLPQETMEARFNIGEEEAAIEMAGKIDAGMMGTGFLYTNKESITLGVGCMLSDFKQQKISPYELLDRMKTHPSIAPLIAGSDMKEYAAHLIPEGGYNAIPQVYGDGWMIAGDAPIRHGIHREGSNLAMTTGMLAAQTLVELRAADKPFSAANLAEYKKKLDDSFVMKDLKKYRRMPEIFHKNKQFFTTYPDLLSRAAQTLIRVDGVDKKTKEKEIKKSFIGLRSLFGLIGDAFKFWRAVE"}},
  "key": {"[1]": {"biological_target": "FixAB from Rhodospirillum rubrum (Rhodospirillum rubrum, UniProt Q6US86+Q6US87)", "experiment": "transient absorption spectroscopy of bound flavin", "type": "binding", "settings": "FAD-reconstituted, as-isolated oxidized state; room temperature"}, "[2]": {"biological_target": "B2", "experiment": "co-purification"}, "[3]": {"biological_target": "B3", "experiment": "co-purification"}, "[4]": {"biological_target": "T1, FixX subunit of the FixABCX complex from Azotobacter vinelandii (Azotobacter vinelandii, UniProt P53658 1-94)", "T1 sequence (looked up)": "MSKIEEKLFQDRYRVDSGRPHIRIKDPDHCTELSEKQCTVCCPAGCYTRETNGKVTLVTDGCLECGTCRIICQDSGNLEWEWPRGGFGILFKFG", "experiment": "co-purification"}},
  "data": [
    {"molecule": "Cc1cc2nc3c(=O)[nH]c(=O)nc-3n(C[C@H](O)[C@H](O)[C@H](O)COP(=O)(O)OP(=O)(O)OC[C@H]3O[C@@H](n4cnc5c(N)ncnc54)[C@H](O)[C@@H]3O)c2cc1C", "note": "[FAD]", "values": [
      {"measurement": "transient absorption spectroscopy of bound flavin", "setting": "[1]", "result": "two ASQ species can be formed in the FixAB unit, consistent with the presence of two flavins"}
    ]},
    {"molecule": "B1", "values": [
      {"measurement": "stoichiometry N", "setting": "[2]", "result": 1}
    ]},
    {"molecule": "B2", "values": [
      {"measurement": "stoichiometry N", "setting": "[3]", "result": 1}
    ]},
    {"molecule": "B3", "values": [
      {"measurement": "stoichiometry N", "setting": "[4]", "result": 1}
    ]}
  ]
}
